Experiment [1] concerns the target human recombinant biotinylated FcRn (neonatal Fc receptor) (human) (UniProt P55899). In words: SPR; ProteOn XPR36; biotinylated human FcRn immobilised on an NLC chip, IL-12Fc variants or control antibodies as analytes (0-6075 nM); histidine buffer (20 mM histidine, 150 mM NaCl, 0.05% Tween 20) pH 6.0; KD from binding equilibrium analysis; values of Figure 2B (for WT and NHQ those of the channel labelled 100-115 RU in the sheet of Figure S2C). (In general: In SPR one partner is held on a chip, and binding of the other changes the refractive index at the surface.)

Experiment [2] shares this target. The experiment in a line: SPR; as a1, channel L4, FcRn coating density labelled 75-80 RU; WT 365-4.5 nM, NHQ 3645-45 nM; pH 6.0; equilibrium analysis.
Experiment [3] shares this target. The experiment in a line: SPR; as a1, channel L2, FcRn coating density labelled 250-260 RU; WT 365-4.5 nM, NHQ 3645-45 nM; pH 6.0; equilibrium analysis.
The target is the same in experiment [4]. The experiment in a line: SPR; as a1, channel L5, FcRn coating density labelled 30-35 RU; WT 365-4.5 nM, NHQ 3645-45 nM; pH 6.0; equilibrium analysis.
Experiment [5] has the same target. In words: SPR; as a1, channel L1, FcRn coating density labelled 550-600 RU; WT 365-4.5 nM, NHQ 3645-45 nM; pH 6.0; equilibrium analysis.
The target is the same in experiment [6].

Bounds are passed on as bounds.

One may read the Kd as the concentration at which binding is half-saturated.

Consider Control IgG1 (antibody), for which, in experiment [1], the Kd is 0.218 µM. Same read-out and setting: next, Control IgG4 (antibody): 0.343 µM. As for IL-12Fc WT (IHH) (Fc fusion), the Kd was found to be 0.101 µM in experiment [1]; 0.186 µM in experiment [2]; 0.0601 µM in experiment [3]; 0.445 µM in experiment [4]; 0.216 µM in experiment [5]. For the substance IL-12Fc WT S228P (Fc fusion), in experiment [1], the Kd was 0.182 µM. On to “human IL-12Fc NHQ (I253N H435Q), FcRn-silenced IL-12Fc (Fc fusion)”, for which, in experiment [6], the IL-12 level in the ipsilateral brain hemisphere 6 h after CED of 1 ug into the striatum of hFcRn Tg32 mice, compared to the IAQ and AAA variants and WT IL-12Fc was greater than 30%.

Take “human IL-12Fc WT (IHH), single-chain IL-12 fused to human IgG4 Fc (Fc fusion)”: the residual brain level of IL-12Fc WT 6 h after CED in hFcRn Tg32 mice given the FcRn inhibitor MST-HN Fc (100 ug i.v.) beforehand in experiment [6] is greater than 50%.

For the origin of these results see publication PMC12098678.
